{"source": "paper PMC6249979", "biological_target": "Flag-actin-WT, P60709", "assay": "co-immunoprecipitation with anti-Flag magnetic beads, competition with purified MRTF-A (2-261), immunoblot quantification", "details": "chain shown with the change; NIH 3T3 cells co-expressing Flag-actin-WT and myc-JMY constructs, serum-starved for 24 h post transfection; purified MRTF-A (2-261) added to the lysates prior …; parent: est. 0.97; read off a plot", "data": [{"binder": "myc-JMY-f.l., Q9QXM1 R961E (protein) MSFALEETLESDWVAVRPHVFDEREKHKFVFIVAWNEIEGKFAITCHNRTAQRQRSGSREQAGTPASDGSRGPGSPAARGRSEAAASATAALRSPGPRKSQAWAEGGSPRSARSLKGDPPRGPAGRGPESPLRSPARAKASPLRRSAESRDAIASATPVPPAPPVPPVSSVRVVSASGAVSEEIEVLEMVREDEAPQPLPDSEQPPSAAELESSAEECSWAGLFSFQDLRAVHQQLCSVNSQLEPCLPVFPEEPSGMWTVLFGGAPEMTEQEIDALCYQLQVYLGHGLDTCGWKILSQVLFTETDDPEEYYESLSELRQKGYEEVLQRARRRIQELLDKHKTIESMVELLDLYQMEDEAYSSLAEATTELYQYLLQPFRDMRELAMLRRQQIKISMENDYLGPRRIESLQKEDADWQRKAHMAVLSIQDLTVKYFEITAKAQKAVYDRMRADQKKFGKASWAAAAERMEKLQYAVSKETLQMMRAKEICLEQKKHALKEEMQSLQGGTEAIARLDQLESDYYDLQLQLYEVQFEILKCEELLLTAQLESIKRLISEKRDEVVYYDTYESMEAMLEKEEMAASVHAQREELQKLQQKARQLEARRGRVSAKKAYLRNKKEICIAKHHEKFQQRFQSEDEYRAHHTIQIKRDKLHDEEERKSAWVSQERQRTLDRLRTFKQRYPGQVILKSTRLRVAHSRRKSTASPVPCEEQCHSLPTVLQGQEKTEVGGGGSQLGPSQTAEPQSLVQLEDTSSEQLESTSLPPRAVVSSELPPPQSAPLLTSIDPKPCSVTIDPLPPPLPPTPPPPPPPPPPPPPPLPVAKDNGASTTAETLEKDALRTEGNERSIPKSASAPAAHLFDSSQLVSARKKLRKTVEGLQRRRVSSPMDEVLASLKRGSFHLKKVEQRTLPPFPDEDDSNNILAQIRKGVKLKKVQKEVLRESFTLLPDTDPLTRSIHEALREIKEASPESEDEEEALPCTDWEN", "values": [{"measurement": "other: relative amount of MRTF-A bound to Flag-actin (competition by co-expressed JMY)", "result": 0.59}]}]}
